Series [1] can be described thus: DiFMUP assay of TCPTP, TCPTPCAT, PTP1B and PTP1BCAT. Type of series: biochemical. The conditions noted are these: PTP1B (1–400) vs PTP1BCAT (1–321), DiFMUP, n = 6. The procedure: Activity of TCPTP, TCPTPCAT (residue 1–314) either with or without ITGA1 peptides (ITGA1_TR; 1:50 molar ratio, ITGA1_FCT; 1:1000 molar ratio), PTP1B (residue 1–400) and PTP1BCAT (residue 1–321) were assessed in assay buffer (25 mM Hepes pH 7.4, 50 mM NaCl, and 1 mM DTT). The assay was performed in black polystyrene flat bottom 96-well plate. The concentration of DiFMUP was fixed at 10 μM and protein concentration at 2.5 nM in total reaction volume of 100 μl. The emitted fluorescent signal at 455 nm was continuously recorded for 25 min using a Tecan Infinite M1000 pro microplate reader (Tecan i-control, 2.0.10.0).

In series [2] the test system is pEGFR peptide-1, derived from the cytoplasmic tail of EGFR. The series is described as follows: Phosphatase kinetic analysis (Michaelis-Menten) of TCPTP constructs, pEGFR peptide-1 substrate. Type of series: biochemical. The conditions noted are these: mean ± SE, n = 9 (TCPTPCAT, TCPTP) or 12 (TCPTPC-term, TCPTPL1). The procedure:
(§1) The rate of dephosphorylation of TCPTP and TCPTPCAT (residue 1–314) against 2 phosphotyrosine peptides derived from EGFR was monitored either with or without ITGA1 peptide (ITGA1_FCT & ITGA1_TR) in assay buffer (25 mM Hepes pH 7.4, 50 mM NaCl and 1 mM DTT). Lyophilized powder of all synthetic peptides was dissolved in assay buffer without DTT (phosphopeptides, 5 mM; ITGA1 peptides, 2 mM). For the kinetic analysis, the concentration of the enzyme was fixed at 1 nM while the substrate (phosphopeptides) concentration was varied from 2.5 μM to 160 μM in a total reaction volume of 200 μl. Effect of ITGA1 peptide on TCPTP & TCPTPCAT kinetics were assessed in saturated condition by adding an excess amount of ITGA1 peptide to the reaction mixture (ITGA1_TR = 1 μM; ITGA1_FCT = 25 μM). The reaction was incubated at 30 °C for 30 min and stopped by the addition of 30 μl phosphate reagent (phosphate colorimetric assay kit; Bio Vision) following the manufacturer’s instructions. Data were normalized and fitted using a nonlinear curve, and kinetics parameters (KM and kcat) were calculated from the Michaelis-Menten equation using Graph Pad Prism 9.0. All data points in the enzyme kinetics experiment were measured in triplicate, and the experiments were repeated three times.

Series [3] deals with pEGFR peptide-2, derived from the EGFR's kinase domain activation loop. Put plainly: Phosphatase kinetic analysis (Michaelis-Menten) of TCPTP constructs, pEGFR peptide-2 substrate. It counts as biochemical. The conditions noted are these: mean ± SE, n = 9. How it is done:
as §1
Supplementary Table 2: Enzymatic activity assay (Michaelis-Menten analysis); substrate pEGFR peptide-2, derived from the EGFR’s kinase domain activation loop. Calculated kinetic parameter are presented as the mean of nine independent reactions (n=9; mean ± SE). Source data are provided as a Source Data file. kcat (s-1) Km (µM) kcat/Km (µM -1s-1)

Series [4] concerns the target T1, TCPTPCAT (TCPTP catalytic domain, residues 1-302) (human, UniProt P17706-2 1-302).
T1 construct: T cell protein tyrosine phosphatase (TCPTP, PTPN2), human, TC45 isoform, catalytic domain residues 1-302, sub-cloned into pRP1B for all NMR experiments; (2H,15N)-labelled where it was the observed species, unlabelled where it was titrated into the labelled tail; also called T-Cell Protein Tyrosine Phosphatase catalytic domain; PTPN2 catalytic domain; source: E. coli BL21 (DE3) RIL, purified …
T1 sequence (looked up): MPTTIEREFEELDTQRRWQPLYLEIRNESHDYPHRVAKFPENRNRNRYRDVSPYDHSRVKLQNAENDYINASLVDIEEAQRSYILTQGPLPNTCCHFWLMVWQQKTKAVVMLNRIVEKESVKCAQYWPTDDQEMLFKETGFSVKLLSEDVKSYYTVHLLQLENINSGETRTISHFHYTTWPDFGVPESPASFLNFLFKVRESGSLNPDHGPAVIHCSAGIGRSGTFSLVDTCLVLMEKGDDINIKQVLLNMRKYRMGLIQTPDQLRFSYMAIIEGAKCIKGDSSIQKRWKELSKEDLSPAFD
The series is described as follows: NMR titration; 15N-labelled tail observed (2D [1H,15N] HSQC, 0.1 mM), unlabelled TCPTPCAT added in increasing amounts (1:0 to 1:20 tail:CAT); NMR buffer 20 mM HEPES pH 6.8, 150 mM NaCl, 0.5 mM TCEP, 90% H2O/10% D2O; 298 K or 283 K. The conditions noted are these: both partners purified.

In a further series the target is T2, TCPTPCAT (Homo sapiens, UniProt P17706).
T2 construct: TCPTP and TCPTPCAT (residue 1–314) against 2 phosphotyrosine peptides derived from EGFR; His6 (N, cleaved yes); made in house; host or cells: E. coli BL21 (DE3) RIL
T2 sequence (P17706 1-314 isoform P17706-2): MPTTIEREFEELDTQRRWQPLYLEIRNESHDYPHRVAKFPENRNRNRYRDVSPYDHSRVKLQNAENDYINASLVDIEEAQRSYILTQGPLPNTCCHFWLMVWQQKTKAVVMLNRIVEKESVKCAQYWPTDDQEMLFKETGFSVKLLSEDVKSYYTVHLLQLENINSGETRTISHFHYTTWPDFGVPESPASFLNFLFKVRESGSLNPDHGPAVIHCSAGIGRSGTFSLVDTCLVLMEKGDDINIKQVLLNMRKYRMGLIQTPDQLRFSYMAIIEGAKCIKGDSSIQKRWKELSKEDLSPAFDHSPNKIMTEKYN
Put plainly: NMR titration (2D HSQC/TROSY) binding to TCPTPCAT
From the text: Polymerase chain reaction (PCR) fragments of TCPTP (residues: 1–387) TCPTPCAT (catalytic domain, residues: 1–288, 1–302 or 1–314), TCPTPTail (C-terminal tail, residues: 289–387 or 303–387) were amplified from full-length human TCPTP (TC45 isoform). TCPTP, TCPTPCAT (residues: 1–288, 1–314), and TCPTPTail (residues: 289–387) fragments were cloned into pMCSG7 including a N-terminal His6-tag using ligation-independent cloning. For all NMR experiments, the PCR fragments of TCPTP, TCPTPCAT (residues: 1–302) and TCPTPTail (residue: 303–387) were sub-cloned into pRP1B as previously described.
NMR data were collected on either Bruker NEO 600 MHz or 800 MHz spectrometers equipped with TCI HCN z-gradient cryoprobes at 298 K or 283 K. NMR measurements of TCPTP’s variant construct were recorded using (^1H,^15N)-, (^2H,^15N)-, (^1H,^15N,^13C), or (^2H,^15N,^13C)-labeled protein at a final concentration of 0.6 mM for backbone assignment or 0.1 mM for titration in NMR buffer and 90% H2O/10% D2O. The sequence-specific backbone assignments of TCPTP (residues 1–387), TCPTPCAT (residues 1–302), TCPTPTail (residues 303–387) and other variants were achieved using 3D triple resonance experiments including […], 3D HNCA, 3D HN(CO)CA, 3D HN(CO)CACB, and 3D HNCACB either as HSQC or TROSY variations. All NMR data were processed using TopSpin 4.0.5[44] and analyzed using either CARA (http://www.cara.nmr.ch) and/or CcpNMR[45].

The target of series [5] is T3, TCPTP (full-length TCPTP, residues 1-387, TC45 isoform) (human, UniProt P17706-2 1-387).
T3 sequence (looked up): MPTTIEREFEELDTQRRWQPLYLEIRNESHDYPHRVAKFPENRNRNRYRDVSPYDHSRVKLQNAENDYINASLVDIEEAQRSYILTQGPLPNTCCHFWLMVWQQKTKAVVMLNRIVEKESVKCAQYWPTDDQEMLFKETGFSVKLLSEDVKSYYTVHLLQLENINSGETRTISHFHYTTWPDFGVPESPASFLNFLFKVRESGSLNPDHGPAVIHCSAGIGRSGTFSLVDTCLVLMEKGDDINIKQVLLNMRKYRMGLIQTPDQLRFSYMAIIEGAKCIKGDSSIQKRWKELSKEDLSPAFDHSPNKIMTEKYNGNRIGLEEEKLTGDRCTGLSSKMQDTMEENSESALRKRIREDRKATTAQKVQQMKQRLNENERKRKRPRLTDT
The series is described as follows: cell-based or functional assay.

Setting [6] is: pEGFR peptide-2 2.5-160 μM, 1 nM enzyme, pH 7.4, 30 °C 30 min.

B1: PTP1B: PTP1B (residue 1–400) (protein, UniProt P18031 1-400, looked up, fragment)
chain: MEMEKEFEQIDKSGSWAAIYQDIRHEASDFPCRVAKLPKNKNRNRYRDVSPFDHSRIKLHQEDNDYINASLIKMEEAQRSYILTQGPLPNTCGHFWEMVWEQKSRGVVMLNRVMEKGSLKCAQYWPQKEEKEMIFEDTNLKLTLISEDIKSYYTVRQLELENLTTQETREILHFHYTTWPDFGVPESPASFLNFLFKVRESGSLSPEHGPVVVHCSAGIGRSGTFCLADTCLLLMDKRKDPSSVDIKKVLLEMRKFRMGLIQTADQLRFSYLAVIEGAKFIMGDSSVQDQWKELSHEDLEPPPEHIPPPPRPPKRILEPHNGKCREFFPNHQWVKEETQEDKDCPIKEEKGSPLNAAPYGIESMSQDTEVRSRVVGGSLRGAQAASPAKGEPSLPEKDED
As to B1, in series [1], the “autoregulatory behavior of the C-terminal tail (activity vs catalytic domain)” value is reported as “not observed”.

B2: TCPTPCAT: TCPTP catalytic domain, residues 1–288, 1–302 (NMR) or 1–314 (activity, SAXS) (protein, UniProt P17706 1-314, looked up, fragment)
chain: MPTTIEREFEELDTQRRWQPLYLEIRNESHDYPHRVAKFPENRNRNRYRDVSPYDHSRVKLQNAENDYINASLVDIEEAQRSYILTQGPLPNTCCHFWLMVWQQKTKAVVMLNRIVEKESVKCAQYWPTDDQEMLFKETGFSVKLLSEDVKSYYTVHLLQLENINSGETRTISHFHYTTWPDFGVPESPASFLNFLFKVRESGSLNPDHGPAVIHCSAGIGRSGTFSLVDTCLVLMEKGDDINIKQVLLNMRKYRMGLIQTPDQLRFSYMAIIEGAKCIKGDSSIQKRWKELSKEDLSPAFDHSPNKIMTEKYN
modifications: catalytic domain
As for B2, the kcat (as a rule, the number of substrate molecules converted per active site and unit of time at saturation) in series [2] (pEGFR peptide-1 2.5-160 μM, 1 nM enzyme, 25 mM Hepes pH 7.4, 50 mM NaCl, 1 mM DTT, 30 °C 30 min) stood at 34.0 ± 0.9 s⁻¹; in series [3] (setting [6]) it was 36.3 ± 0.9 s⁻¹. Moreover, the Km – broadly, the concentration of substrate that gives half-maximal velocity – in series [2] (pEGFR peptide-1 2.5-160 μM, 1 nM enzyme, pH 7.4, 30 °C 30 min) came out at 24.8 ± 2 µM; in series [3] (setting [6]), 34 ± 2.2 µM. For the same molecule, the kcat/Km in series [2] (pEGFR peptide-1, pH 7.4, 30 °C) turned out to be 1.4e+06 ± 100000 M⁻¹ s⁻¹; in series [3] (pEGFR peptide-2), 1.1 ± 0.1 µM -1s-1.

B3: TCPTP_(Tail) (C-terminal tail, residues 303-387) (domain or fragment, human, UniProt P17706-2 303-387, looked up)
chain: HSPNKIMTEKYNGNRIGLEEEKLTGDRCTGLSSKMQDTMEENSESALRKRIREDRKATTAQKVQQMKQRLNENERKRKRPRLTDT
notes: T cell protein tyrosine phosphatase (TCPTP, PTPN2), human, TC45 isoform, C-terminal tail residues 303-387, sub-cloned into pRP1B for all NMR experiments; also called TCPTP C-terminal tail; TCPTP IDR; source: E. coli BL21 (DE3) RIL, purified (His-trap, TEV cleavage, subtraction, heat step 80 °C 10 min, SEC)
In the case of B3, in series [4], the binding result is given as “binds”.

B4: TCPTP_(TailRK) (N373R/E374K/N375R/E376K) (domain or fragment, human, UniProt P17706-2 303-387, looked up)
chain: HSPNKIMTEKYNGNRIGLEEEKLTGDRCTGLSSKMQDTMEENSESALRKRIREDRKATTAQKVQQMKQRLRKRKRKRKRPRLTDT
notes: T cell protein tyrosine phosphatase (TCPTP, PTPN2), human, TC45 isoform, C-terminal tail with 373NENE376 changed to 373RKRK376; 15N-labelled when observed; also called TCPTP_(TaiRK); source: E. coli BL21 (DE3) RIL, purified (His-trap, TEV cleavage, subtraction, heat step 80 °C 10 min, SEC)
In the case of B4, in series [4], the binding result is “binds”.

B5: TCPTPTailRK: TCPTPTail with N373R/E374K/N375R/E376K (protein)
chain: HSPNKIMTEKYNGNRIGLEEEKLTGDRCTGLSSKMQDTMEENSESALRKRIREDRKATTAQKVQQMKQRLRKRKRKRKRPRLTDT
modifications: left off: His6, end not stated, cleaved
notes: TCPTPTail with N373R/E374K/N375R/E376K
On to B5, for which the “NMR titration: interaction strength vs TCPTPTail” value with TCPTPCAT (2D [1H,15N] HSQC, reduction in peak intensities at lower ratio (1:10)) was “tighter interaction”. Besides, the “NMR titration: CSPs in (2H,15N)-labeled TCPTPCAT” value in the series with TCPTPCAT (2D [1H,15N] TROSY, unlabeled ligand added) is listed as “Small, but clear chemical shift perturbations (CSPs) were readily identified”.
As for KIGFFKRPLKKKMEK [ITGA1_FCT (ITGA1 full cytoplasmic tail)], the “rate of dephosphorylation (EGFR phosphopeptides, DiFMUP) by TCPTP saturated with excess ITGA1 peptide (ITGA1_FCT 25 μM), against TCPTP alone” value in series [5] was approximately 3 fold.
Turning to RPLKKKMEKRPLKKKMEK [ITGA1_TR (ITGA1 tandem repeat; 2x ITGA1_TCT)], the “rate of dephosphorylation (EGFR phosphopeptides, DiFMUP) by TCPTP saturated with excess ITGA1 peptide (ITGA1_TR 1 μM), against TCPTP alone” value in series [5] was approximately 3 fold.

The record behind these values is publication PMC8748766, “The catalytic activity of TCPTP is auto-regulated by its intrinsically disordered tail and activated by Integrin alpha-1” (Nature Communications, 2022).
